Consider three molecules from patent US10889629B2, “Transfected T-cells and T-cell receptors for use in immunotherapy against cancers” (IMMATICS BIOTECHNOLOGIES GMBH, priority 2016, dated 2021).

Entries after “also recorded” stand apart in the source; their conditions may differ.

One series has as its target HLA-A*0201 molecule (Homo sapiens, UniProt P04439, D140Y/D185E/D98H/E176V/E277Q/G131W/G231S/I119V/I121R/I166T/I218V/L300P/L318F/N151K/N90K/P208A/P217A/Q86G/Q94H/R138H/R169H/T345S). As to conditions: cited from earlier work.
For series [1], the system named is T98G (human glioblastoma cell line, HLA-A2-positive and MAG-003-negative). Put plainly: IFNγ release, TCR-expressing CD8+ T-cells co-incubated with T98G. Conditions: Example 4, T98G, compared with effector cell only control. The class given is cell-based. On the procedure:
(§1) To determine efficacy of T-cells expressing TCRs described herein, primary CD8+ T-cells electroporated with RNA of the TCRs R7P1 D5, R20P1H7 and R10P2G12 were co-incubated with different human cancer cell lines, e.g., A-375 (human melanoma cell line, which is positive for HLA-A2 and MAG-003 expression), T98G (human glioblastoma cell line, which is HLA-A2-positive and MAG-003-negative), and SK-BR-3 (human breast cancer cell line, which is HLA-A2-negative and MAG-003-negative), followed by IFNγ release assay.

The next series relates to MHC/NYESO1-001 tetramer. Put plainly: Tetramer staining of TCR-RNA-electroporated CD8+ T-cells, MHC/NYESO1-001 control tetramer. The format is binding, human. From the text: (§2) FIG. 8 show MHC/MAG-003 tetramer or MHC/NYESO1-001 tetramer staining of CD8+ T-cells electroporated with alpha and beta chain RNA of TCRs R7P1 D5, R20P1H7 and R10P2G12 (Table 2), respectively. CD8+ T-cells electroporated with RNA of 1G4 TCR that specifically binds to MHC/NYESO1-001 complex and mock electroporated CD8+ T-cells served as controls.
(§3) T-cell activation was further confirmed using a tetramer staining technique to detect MHC/MAG-003-binding activated cytotoxic T-cells. As shown in FIG. 8 and Table 11, a higher percentage of TCR-expressing CD8+ T-cells were stained positive fluorescent-labeled MHC/MAG-003 tetramer than that with MHC/NYESO1-001 control tetramer or mock control. […] The alpha and beta chains of TCR 1G4 are shown in SEQ ID NO:89 and 90, respectively: […]

Series [2] concerns SK-BR-3 (human breast cancer cell line, HLA-A2-negative and MAG-003-negative). The experiment in a line: IFNγ release, TCR-expressing CD8+ T-cells co-incubated with SK-BR-3. The class given is cell-based. Conditions: Example 4, SK-BR-3, compared with effector cell only control. On the procedure: as §1
Another series concerns the target MHC/MAG-003 tetramer (Homo sapiens, UniProt P04439+P43358, D140Y/D185E/D98H/E176V/E277Q/G131W/G231S/I119V/I121R/I166T/I218V/N151K/N90K/P208A/P217A/Q86G/Q94H/R138H/R169H). Put plainly: Tetramer staining of TCR-RNA-electroporated CD8+ T-cells, MHC/MAG-003 tetramer. The class given is binding.
From the text: as §2, §3

Another series has as its target T1, MHC/MAG-003 complex (Homo sapiens, UniProt P04439+P43358, D140Y/D185E/D98H/E176V/E277Q/G131W/G231S/I119V/I121R/I166T/I218V/L300P/L318F/N151K/N90K/P208A/P217A/Q86G/Q94H/R138H/R169H/T345S).
T1 construct: endogenous in cells
Put plainly: IFN-γ release assay: TCR-RNA-electroporated CD8+ T-cells co-incubated with peptide-loaded target cells. The format is cell-based. As to conditions: target peptide (MAG-003) titration, IFN-γ release. As for the experimental part:
In another aspect, to obtain T-cells expressing TCRs of the present description, TCR RNAs were synthesized by techniques described in the art, e.g., in vitro transcription systems. The in vitro-synthesized TCR RNAs were then introduced into primary CD8+ T-cells obtained from healthy donors by electroporation to re-express tumor specific TCR-alpha and/or TCR-beta chains.
To determine specificity and affinity of TCRs, the transformed CD8+ T-cells were co-incubated with MAG-003-loaded target cells or with target cells loaded with homologous but unrelated peptide RABGAP1L-001 (SEQ ID NO:91), AXIN1-001 (SEQ ID NO:92), ANO5-001 (SEQ ID NO:93), TPX2-001 (SEQ ID NO:94), SYNE3-001 (SEQ ID NO:95), MIA3-001 (SEQ ID NO:96), HERC4-001 (SEQ ID NO:97), PSME2-001 (SEQ ID NO:98), HEATR5A-001 (SEQ ID NO:99) or CNOT1-003 (SEQ ID NO:100) or control peptide NYESO1-001 (SEQ ID NO:101), followed by IFN-γ release assay. Unloaded target cells and CD8+ T-cells alone served as controls. IFN-γ secretion from CD8+ T-cells is indicative of T-cell activation with cytotoxic activity.
As shown in FIGS. 5-7 all primary CD8+ T-cells transformed with TCRs of the present disclosure, after co-incubation with MAG-003-loaded target cells, released much higher levels of IFN-γ than that stimulated by unrelated peptide-loaded target cells, and the controls.

Series [3] has as its system HLA-A*02 positive cell types from healthy tissues. The experiment in a line: Safety: IFN-γ release upon co-culture with primary and iPSC-derived cell types from healthy tissues. Conditions: E:T ratio 1:1, 20 h, ELISA, normalized. The class given is cell-based, human. From the text: FIG. 13 T cells transfected with RNA coding for TCR R7P1 D5, R10P2G12, R20P1H7, mock or the control TCR 1G4 (SEQ ID NO:X) were co-cultured with different primary human healthy tissue cells (see table 13 for abbreviations), the target negative tumor cell line MCF-7 and the MAGEA4- and NY-ESO1-positive cell lines A-375 and NCI-H1755. TCRs R7P1D5, R10P2G12, R20P1H7 and 1G4 expression in T cells was achieved by electroporation using an RNA vector. […] E:T ratio 1:1, 20,000 cells each, mean of IFN-γ release after 20 h from replicates is shown as measured by ELISA. Error bars indicate standard deviations. Results were normalized by subtraction of IFN-γ release from TCR-transfected T cells only and IFN-γ release due to co-culture of Target cells and T cells not expressing TCR of interest.
(§4) TCRs of interest were expressed in human T cells via RNA electroporation and the T cells were assessed for IFN-γ release after co-culture with different target cells, such as T2 cells loaded with different peptides as well as tumor cell lines and primary cells from healthy tissues. T-cell activation data are shown in absolute IFN-γ levels or a normalized way as indicated below.
(§5) Efficacy of CD8+ T cells expressing TCRs R7P1 D5, R10P2G12 and R20P1H7 was determined by T cell activation studies (IFN-γ release) using different tumor cell lines as target cells. The characterization of the safety profile of TCRs of interest was approached by testing the potential activation of TCR-expressing T cells upon co-culture with isolated primary cell types from healthy tissues and induced pluripotent stem cell (iPSC)-derived cell types from HLA-A*02-positive donors (Table 13). Cell types were selected in a manner to cover most of the critical organs like e.g. brain, heart and liver and different cell types as epithelium, endothelium or smooth muscle. Tumor cell lines were analyzed side-by-side as positive and negative controls.
(§6) Normalization Method for IFNγ Release: Meannorm(TCRoi;co)=[mean(TCRoi;co)−mean(TCRoi;effector only)]−[mean(mock;co)−mean(mock;effector only)]
The respective CVnorm was calculated: CVnorm(TCRoi;co)=[CV(TCRoi;co)^2+CV(TCRoi;effector only)^2+CV(mock;co)^2+CV(mock;effector only)^2]^[½] TCRoi=effector cells expressing TCR of interest Mock=effector cells without exogenous TCR expression Co=effector cells co-cultured with target cells Effector only=effector cells not co-cultured Mean(norm)=mean IFNγ release (normalized) CV(norm)=coefficient of variation (normalized) Results: […]

Series [4] concerns human non-small cell cancer cell line, H1755 (NCI-H1755). The experiment in a line: IFNγ release, TCR-expressing CD8+ T-cells co-incubated with H1755. The class given is cell-based. Conditions: for T-cell activation (IFN-γ release): Example 6, NCI-H1755 expressing HLA-A*02 and MAGEA4. On the procedure:
as §1, §4, §5, §6

Series [5] relates to A-375 (human melanoma cell line, positive for HLA-A2 and MAG-003 expression). The experiment in a line: IFNγ release, TCR-expressing CD8+ T-cells co-incubated with A-375. The class given is cell-based. Conditions: for IFNγ release: Example 4, A-375, HLA-A2-positive and MAG-003-positive; for T-cell activation (IFN-γ release): Example 6, A-375 expressing HLA-A*02 and MAGEA4. On the procedure:
as §1, §4, §5, §6

For “YLLEHVVRV (listed as Homo sapiens) [p286-1Y2L]”, the “binding affinity and stability towards HLA-A*0201 molecule” value with HLA-A*0201 molecule was “potent binding affinity and stability”.

B1: R7P1D5: TCR, alpha chain SEQ ID NO:55 and beta chain SEQ ID NO:63, MAG-003-specific, from HLA-A2 positive donor (protein, listed as Homo sapiens)
alpha: MKTFAGFSFLFLWLQLDCMSRGEDVEQSLFLSVREGDSSVINCTYTDSSSTYLYWYKQEPGAGLQLLTYIFSNMDMKQDQRLTVLLNKKDKHLSLRIADTQTGDSAIYFCAEYSSASKIIFGSGTRLSIRPNIQNPDPAVYQLRDSKSSDKSVCLFTDFDSQTNVSQSKDSDVYITDKTVLDMRSMDFKSNSAVAWSNKSDFACANAFNNSIIPEDTFFPSPESSCDVKLVEKSFETDTNLNFQNLSVIGFRILLLKVAGFNLLMTLRLWSS
beta: MGSWTLCCVSLCILVAKHTDAGVIQSPRHEVTEMGQEVTLRCKPISGHDYLFWYRQTMMRGLELLIYFNNNVPIDDSGMPEDRFSAKMPNASFSTLKIQPSEPRDSAVYFCASRANTGELFFGEGSRLTVLEDLKNVFPPEVAVFEPSEAEISHTQKATLVCLATGFYPDHVELSWWVNGKEVHSGVSTDPQPLKEQPALNDSRYCLSSRLRVSATFWQNPRNHFRCQVQFYGLSENDEWTQDRAKPVTQIVSAEAWGRADCGFTSESYQQGVLSATILYEILLGKATLYAVLVSALVLMAMVKRKDSRG
Take B1: the IFNγ release entry in series [1] is recorded as “basal levels of IFNγ release”; in series [2] it was “basal levels of IFNγ release”; in [4] (Example 4, H1755, data not shown), “increased IFNγ release”; in series [5], “IFNγ release was observed”. The “% NYESO1-001 TET-positive primary CD8+ T-cells” value in the series on MHC/NYESO1-001 tetramer is recorded as 0.87%. In addition, the “% MAG-003 TET-positive primary CD8+ T-cells” value with MHC/MAG-003 tetramer amounted to 7.99%. Moreover, the EC50 with MHC/MAG-003 complex is ~3 nM. The “T-cell activation (IFN-γ release) by healthy tissue cells” value in series [3] is “did not lead to significant TCR-mediated recognition and T-cell activation”; in [3] (listed as R7P1 D5), “no activation was observed”. In addition, the “T-cell activation (IFN-γ release)” value in [4] and in series [5] was “activity” in each case.

B2: R10P2G12: TCR, alpha chain SEQ ID NO:71 and beta chain SEQ ID NO:79, MAG-003-specific (protein, listed as Homo sapiens)
alpha: MLTASLLRAVIASICVVSSMAQKVTQAQTEISVVEKEDVTLDCVYETRDTTYYLFWYKQPPSGELVFLIRRNSFDEQNEISGRYSWNFQKSTSSFNFTITASQVVDSAVYFCALSEGNSGNTPLVFGKGTRLSVIANIQNPDPAVYQLRDSKSSDKSVCLFTDFDSQTNVSQSKDSDVYITDKTVLDMRSMDFKSNSAVAWSNKSDFACANAFNNSIIPEDTFFPSPESSCDVKLVEKSFETDTNLNFQNLSVIGFRILLLKVAGFNLLMTLRLWSS
beta: MGIRLLCRVAFCFLAVGLVDVKVTQSSRYLVKRTGEKVFLECVQDMDHENMFWYRQDPGLGLRLIYFSYDVKMKEKGDIPEGYSVSREKKERFSLILESASTNQTSMYLCASSLSSGSHQETQYFGPGTRLLVLEDLKNVFPPEVAVFEPSEAEISHTQKATLVCLATGFYPDHVELSWWVNGKEVHSGVSTDPQPLKEQPALNDSRYCLSSRLRVSATFWQNPRNHFRCQVQFYGLSENDEWTQDRAKPVTQIVSAEAWGRADCGFTSESYQQGVLSATILYEILLGKATLYAVLVSALVLMAMVKRKDSRG
Take B2: the values for the IFNγ release result in series [1], in series [2] and in [5] were “basal levels of IFNγ release”, “basal levels of IFNγ release” and “IFNγ release was observed”, respectively. Further, the “% NYESO1-001 TET-positive primary CD8+ T-cells” value with MHC/NYESO1-001 tetramer is 0.87%. Also, the “% MAG-003 TET-positive primary CD8+ T-cells” value with MHC/MAG-003 tetramer was determined as 5.38%. In series [3], the “T-cell activation (IFN-γ release) by healthy tissue cells” value was “no activation was observed; also recorded: did not lead to significant TCR-mediated recognition and T-cell activation”. Further, the “T-cell activation (IFN-γ release)” value in series [4] and in [5] was “activity” each time.

One may read the EC50 as the midpoint of the concentration-response curve.
